Experiment [1] has as its target T1, porcine CD163, membrane-bound form on porcine pulmonary alveolar macrophage (pPAM) WT cells (porcine, UniProt Q2VL90 47-1115).
T1 construct: Native CD163 on primary cells; also called membrane CD163; cell-surface CD163
T1 sequence: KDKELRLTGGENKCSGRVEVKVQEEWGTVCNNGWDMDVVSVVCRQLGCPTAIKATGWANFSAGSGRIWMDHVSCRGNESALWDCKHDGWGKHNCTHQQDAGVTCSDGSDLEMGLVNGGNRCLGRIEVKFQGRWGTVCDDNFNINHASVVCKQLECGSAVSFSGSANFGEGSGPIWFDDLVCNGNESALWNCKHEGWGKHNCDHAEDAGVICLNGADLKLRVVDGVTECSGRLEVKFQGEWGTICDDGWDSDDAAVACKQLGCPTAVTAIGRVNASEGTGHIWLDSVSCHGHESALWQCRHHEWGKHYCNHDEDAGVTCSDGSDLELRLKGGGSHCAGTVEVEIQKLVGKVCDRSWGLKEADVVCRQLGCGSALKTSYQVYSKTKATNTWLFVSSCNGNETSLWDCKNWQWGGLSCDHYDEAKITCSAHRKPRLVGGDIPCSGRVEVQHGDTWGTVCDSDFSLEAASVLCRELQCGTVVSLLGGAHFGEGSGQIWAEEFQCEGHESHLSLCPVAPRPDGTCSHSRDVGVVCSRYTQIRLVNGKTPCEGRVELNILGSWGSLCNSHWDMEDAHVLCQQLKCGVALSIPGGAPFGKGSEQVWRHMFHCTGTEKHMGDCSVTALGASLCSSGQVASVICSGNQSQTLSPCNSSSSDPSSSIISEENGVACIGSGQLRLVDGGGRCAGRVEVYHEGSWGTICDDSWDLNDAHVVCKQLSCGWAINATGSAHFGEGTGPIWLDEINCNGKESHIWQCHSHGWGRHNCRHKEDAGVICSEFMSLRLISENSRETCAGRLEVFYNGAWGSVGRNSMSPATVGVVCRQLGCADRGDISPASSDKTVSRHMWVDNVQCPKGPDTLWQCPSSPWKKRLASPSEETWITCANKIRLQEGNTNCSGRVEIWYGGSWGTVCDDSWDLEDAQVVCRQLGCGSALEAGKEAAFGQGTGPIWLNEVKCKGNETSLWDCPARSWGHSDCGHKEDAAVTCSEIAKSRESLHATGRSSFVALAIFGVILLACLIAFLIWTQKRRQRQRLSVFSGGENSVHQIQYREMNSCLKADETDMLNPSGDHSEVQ
Briefly: dose-response FACS on pPAM WT cells, anti-FLAG-biotin and streptavidin R-PE detection. As to the method: Biparatopic and triparatopic antibody constructs in PBS (pH7.4) were diluted in a 3-fold serial dilutions from 150 nM down to 0.023 nM in FACS buffer (0.5% FBS, 0.5 mM EDTA in 1×PBS pH7.4). Biparatopic and triparatopic candidates were incubated with anti-FLAG-Biotin (Sigma, Cat. nr. F9291), for 30 min on ice with shaking. This mixture was added to pPAM WT cells and incubated for 60 min on ice with gentle shaking. Cells were washed 3×with 150 μl/well of FACS buffer and incubated with 50 μl/well of the secondary detection reagent Streptavidin R-P.E. conjugate antibody (Invitrogen, Cat. nr. SA10044) for 30 min on ice with shaking and protected from light. Cells were then washed 3× with 150 μl/well of FACS Buffer and resuspended in 50 μl/well of FACS buffer to be measured on a FACS machine (Attune™ N×T), and a total of 10000 cells were acquired per sample.

Experiment [2] deals with T1, porcine CD163, membrane-bound form on …. Briefly: cell-based or functional assay.
Experiment [3] has the same target. Description: cell-based or functional assay. This is another data set of the same source.

B1: 03D03 + 17B11 + 03E11 2(G4S) triparatopic VHH construct (bispecific antibody)
chain: QLQLVESGGGLVQPGGSLRLSCAASGFTLDDYTIGWFRQAPGKEREGVSCINSITSNTYYADSVKGRFTISRDNAKNTVYLQMNSLTAEDTAIYYCAADSGLFSGSSCLKYRAMRFGSWGQGTQVTVSSGGGGSGGGGSQVQLVESGGGLVQAGGSLRLSCAASGRTFSSYAMGWFRQTPGKDREFVARIGWTGGTTIYADSVKGRFTISRDNAKNTVYLQMNSLKPEDTAVYYCAADQAGWRTAGVRNTYEYDYWGQGTQVTVSSGGGGSGGGGSQVQLQESGGGLVQVGSSLRLSCVTSGRTPSRYVMGWFRQAPGQEREFVAAISWSGRAPYADSVKGRFTISRDNAKNTVYLQMNSLKPEDTGVYYCAGGEGAIKWTTLDAYDYWGQGTQVTVSS
notes: Triparatopic; not shown: FLAG and His tags
For B1, the EC50 in experiment [1] is 13.6 nM.

B2: 17B11 + 03D03 2(G4S) biparatopic VHH construct (bispecific antibody)
chain: QVQLVESGGGLVQAGGSLRLSCAASGRTFSSYAMGWFRQTPGKDREFVARIGWTGGTTIYADSVKGRFTISRDNAKNTVYLQMNSLKPEDTAVYYCAADQAGWRTAGVRNTYEYDYWGQGTQVTVSSGGGGSGGGGSQLQLVESGGGLVQPGGSLRLSCAASGFTLDDYTIGWFRQAPGKEREGVSCINSITSNTYYADSVKGRFTISRDNAKNTVYLQMNSLTAEDTAIYYCAADSGLFSGSSCLKYRAMRFGSWGQGTQVTVSS
notes: Biparatopic; not shown: FLAG and His tags
In turn, B2 had an EC50 in experiment [1] of 6.6 nM.

B3: 03E11 + 17B11 2(G4S) biparatopic VHH construct (bispecific antibody)
chain: QVQLQESGGGLVQVGSSLRLSCVTSGRTPSRYVMGWFRQAPGQEREFVAAISWSGRAPYADSVKGRFTISRDNAKNTVYLQMNSLKPEDTGVYYCAGGEGAIKWTTLDAYDYWGQGTQVTVSSGGGGSGGGGSQVQLVESGGGLVQAGGSLRLSCAASGRTFSSYAMGWFRQTPGKDREFVARIGWTGGTTIYADSVKGRFTISRDNAKNTVYLQMNSLKPEDTAVYYCAADQAGWRTAGVRNTYEYDYWGQGTQVTVSS
notes: as for B2
For B3, in experiment [1], the midpoint of the response, the EC50, lay at 6.8 nM. This EC50 and that of the molecule before are within 1.5-fold of each other.

B4: 03E11 + 03D03 + 17B11 2(G4S) triparatopic VHH construct (bispecific antibody)
chain: QVQLQESGGGLVQVGSSLRLSCVTSGRTPSRYVMGWFRQAPGQEREFVAAISWSGRAPYADSVKGRFTISRDNAKNTVYLQMNSLKPEDTGVYYCAGGEGAIKWTTLDAYDYWGQGTQVTVSSGGGGSGGGGSQLQLVESGGGLVQPGGSLRLSCAASGFTLDDYTIGWFRQAPGKEREGVSCINSITSNTYYADSVKGRFTISRDNAKNTVYLQMNSLTAEDTAIYYCAADSGLFSGSSCLKYRAMRFGSWGQGTQVTVSSGGGGSGGGGSQVQLVESGGGLVQAGGSLRLSCAASGRTFSSYAMGWFRQTPGKDREFVARIGWTGGTTIYADSVKGRFTISRDNAKNTVYLQMNSLKPEDTAVYYCAADQAGWRTAGVRNTYEYDYWGQGTQVTVSS
notes: Triparatopic: three anti-porcine CD163 VHHs in one chain; also called Tri-2; Tri2; not shown: FLAG and His tags
Turning to B4, in experiment [2], the “IC50, PRRSV1 LT3 infection assay, high CD163 porcine serum” value amounted to 2.96 nM and the “IC50, PRRSV1 LT3 infection assay, low CD163 porcine serum” value is 2.81 nM. Also, in experiment [3], the “IC50, PRRSV2 strain MN184 infection assay, 10% FBS” value came out at 2.13 nM; the “IC50, PRRSV2 strain NA174 infection assay, high CD163 porcine serum” value was found to be 5.01 nM; the “IC50, PRRSV2 strain NA174 infection assay, low CD163 porcine serum” value is 4.99 nM. In experiment [1], this molecule had an EC50 of 9.1 nM.

B5: 03E11 + 03D03 5(G4S) biparatopic VHH construct (bispecific antibody)
chain: QVQLQESGGGLVQVGSSLRLSCVTSGRTPSRYVMGWFRQAPGQEREFVAAISWSGRAPYADSVKGRFTISRDNAKNTVYLQMNSLKPEDTGVYYCAGGEGAIKWTTLDAYDYWGQGTQVTVSSGGGGSGGGGSGGGGSGGGGSGGGGSQLQLVESGGGLVQPGGSLRLSCAASGFTLDDYTIGWFRQAPGKEREGVSCINSITSNTYYADSVKGRFTISRDNAKNTVYLQMNSLTAEDTAIYYCAADSGLFSGSSCLKYRAMRFGSWGQGTQVTVSS
notes: as for B2
B5 registered an EC50 in experiment [1] of 6.5 nM. This lies in the single-digit nanomolar range.

B6: 17B11 + 03D03 + 03E11 2(G4S) triparatopic VHH construct (bispecific antibody)
chain: QVQLVESGGGLVQAGGSLRLSCAASGRTFSSYAMGWFRQTPGKDREFVARIGWTGGTTIYADSVKGRFTISRDNAKNTVYLQMNSLKPEDTAVYYCAADQAGWRTAGVRNTYEYDYWGQGTQVTVSSGGGGSGGGGSQLQLVESGGGLVQPGGSLRLSCAASGFTLDDYTIGWFRQAPGKEREGVSCINSITSNTYYADSVKGRFTISRDNAKNTVYLQMNSLTAEDTAIYYCAADSGLFSGSSCLKYRAMRFGSWGQGTQVTVSSGGGGSGGGGSQVQLQESGGGLVQVGSSLRLSCVTSGRTPSRYVMGWFRQAPGQEREFVAAISWSGRAPYADSVKGRFTISRDNAKNTVYLQMNSLKPEDTGVYYCAGGEGAIKWTTLDAYDYWGQGTQVTVSS
notes: as for B1
B6 yielded a half-maximal effective concentration (EC50) in experiment [1] of 8 nM.

B7: 03D03 + 03E11 + 17B11 2(G4S) triparatopic VHH construct (bispecific antibody)
chain: QLQLVESGGGLVQPGGSLRLSCAASGFTLDDYTIGWFRQAPGKEREGVSCINSITSNTYYADSVKGRFTISRDNAKNTVYLQMNSLTAEDTAIYYCAADSGLFSGSSCLKYRAMRFGSWGQGTQVTVSSGGGGSGGGGSQVQLQESGGGLVQVGSSLRLSCVTSGRTPSRYVMGWFRQAPGQEREFVAAISWSGRAPYADSVKGRFTISRDNAKNTVYLQMNSLKPEDTGVYYCAGGEGAIKWTTLDAYDYWGQGTQVTVSSGGGGSGGGGSQVQLVESGGGLVQAGGSLRLSCAASGRTFSSYAMGWFRQTPGKDREFVARIGWTGGTTIYADSVKGRFTISRDNAKNTVYLQMNSLKPEDTAVYYCAADQAGWRTAGVRNTYEYDYWGQGTQVTVSS
notes: as for B1
The molecule B7 returned an EC50 in experiment [1] of 3.8 nM.

B8: 03E11 + 03D03 2(G4S) biparatopic VHH construct (bispecific antibody)
chain: QVQLQESGGGLVQVGSSLRLSCVTSGRTPSRYVMGWFRQAPGQEREFVAAISWSGRAPYADSVKGRFTISRDNAKNTVYLQMNSLKPEDTGVYYCAGGEGAIKWTTLDAYDYWGQGTQVTVSSGGGGSGGGGSQLQLVESGGGLVQPGGSLRLSCAASGFTLDDYTIGWFRQAPGKEREGVSCINSITSNTYYADSVKGRFTISRDNAKNTVYLQMNSLTAEDTAIYYCAADSGLFSGSSCLKYRAMRFGSWGQGTQVTVSS
notes: Biparatopic: two anti-porcine CD163 VHHs in one chain; also called 19-17; 03D03+03E11; not shown: FLAG and His tags
B8 returned an EC50 in experiment [1] of 8.4 nM.

B9: 03E11 + 17B11 + 03D03 2(G4S) triparatopic VHH construct (bispecific antibody)
chain: QVQLQESGGGLVQVGSSLRLSCVTSGRTPSRYVMGWFRQAPGQEREFVAAISWSGRAPYADSVKGRFTISRDNAKNTVYLQMNSLKPEDTGVYYCAGGEGAIKWTTLDAYDYWGQGTQVTVSSGGGGSGGGGSQVQLVESGGGLVQAGGSLRLSCAASGRTFSSYAMGWFRQTPGKDREFVARIGWTGGTTIYADSVKGRFTISRDNAKNTVYLQMNSLKPEDTAVYYCAADQAGWRTAGVRNTYEYDYWGQGTQVTVSSGGGGSGGGGSQLQLVESGGGLVQPGGSLRLSCAASGFTLDDYTIGWFRQAPGKEREGVSCINSITSNTYYADSVKGRFTISRDNAKNTVYLQMNSLTAEDTAIYYCAADSGLFSGSSCLKYRAMRFGSWGQGTQVTVSS
notes: as for B1
Turning to B9, the midpoint of the response in experiment [1], the EC50, lay at 18.2 nM.

B10: 03E11 + 17B11 5(G4S) biparatopic VHH construct (bispecific antibody)
chain: QVQLQESGGGLVQVGSSLRLSCVTSGRTPSRYVMGWFRQAPGQEREFVAAISWSGRAPYADSVKGRFTISRDNAKNTVYLQMNSLKPEDTGVYYCAGGEGAIKWTTLDAYDYWGQGTQVTVSSGGGGSGGGGSGGGGSGGGGSGGGGSQVQLVESGGGLVQAGGSLRLSCAASGRTFSSYAMGWFRQTPGKDREFVARIGWTGGTTIYADSVKGRFTISRDNAKNTVYLQMNSLKPEDTAVYYCAADQAGWRTAGVRNTYEYDYWGQGTQVTVSS
notes: as for B2
Turning to B10, the response in experiment [1] was half-maximal at 8.4 nM (EC50).

B11: 17B11 + 03D03 5(G4S) biparatopic VHH construct (bispecific antibody)
chain: QVQLVESGGGLVQAGGSLRLSCAASGRTFSSYAMGWFRQTPGKDREFVARIGWTGGTTIYADSVKGRFTISRDNAKNTVYLQMNSLKPEDTAVYYCAADQAGWRTAGVRNTYEYDYWGQGTQVTVSSGGGGSGGGGSGGGGSGGGGSGGGGSQLQLVESGGGLVQPGGSLRLSCAASGFTLDDYTIGWFRQAPGKEREGVSCINSITSNTYYADSVKGRFTISRDNAKNTVYLQMNSLTAEDTAIYYCAADSGLFSGSSCLKYRAMRFGSWGQGTQVTVSS
notes: as for B2
For the molecule B11, in experiment [1], the EC50 was found to be 6.6 nM. The EC50 values of the last two molecules are within 1.5-fold of each other.

What is called EC50 is the concentration giving half of the maximal effect. The low end stands for higher potency in that assay, the high end for lower potency in that assay.

The values are drawn from patent US20260085129A1 (ECO ANIMAL HEALTH, published 2026).
